The record followed here is US20160215048A1 (published 2016).

The target in experiment [1] is T1, recombinant human IL-18 (human, UniProt Q14116 37-193).
T1 construct: Commercial recombinant human IL-18; In the Luminex screening it was attached to beads; also called Interleukin-18; human interleukin-18
T1 sequence (looked up): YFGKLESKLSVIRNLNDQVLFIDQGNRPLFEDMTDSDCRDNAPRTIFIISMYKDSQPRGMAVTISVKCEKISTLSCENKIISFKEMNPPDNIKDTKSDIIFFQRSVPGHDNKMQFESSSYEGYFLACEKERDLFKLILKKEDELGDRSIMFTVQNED
Put plainly: Luminex; biotinylated IL-18BP (competitor) on IL-18 beads pre-bound with the mAb; the signal is IL-18BP binding.

The target in experiment [2] is T2, IL-18/IL-18BP complex (human, UniProt Q14116 37-193).
T2 construct: Complex of IL-18 with IL-18BP; in the third Luminex screening step IL-18BP was linked to the beads and then complexed to IL-18; Stoichiometry 1:1 is only cited from the literature; also called IL-18 previously complexed to IL-18BP; complex IL-18/IL-18BP
T2 sequence 1: T1 sequence (looked up)
T2 sequence 2: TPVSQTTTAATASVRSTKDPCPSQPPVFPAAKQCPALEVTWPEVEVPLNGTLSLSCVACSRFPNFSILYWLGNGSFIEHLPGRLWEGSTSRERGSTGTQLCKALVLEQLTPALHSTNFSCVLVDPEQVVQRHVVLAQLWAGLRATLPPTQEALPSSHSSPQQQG
Put plainly: Luminex third screening against first screening.

Experiment [3] deals with T1, recombinant human IL-18. As to the kind of experiment: Luminex; mAb on IL-18 beads.
Experiment [4] has as its target T2, IL-18/IL-18BP complex. Put plainly: Luminex; mAb on IL-18 complexed to bead-linked IL-18BP.

B1: Antibody 131E8 (antibody)
chain 1: QVQLKQSRPGPVQPSQSLSITCTVSGFSLPNYGVHWVRQPPGKGLEWLGVIWSGGSTDYNAAFKSRLSISKDNSKSQVFFKMNSLQADDTAIYYCARNFYSKYDYAMDYWGQGTSVTVSS
chain 2: QVQLQQPGSVLVRPGASVKLSCKASGYTFTSYWMHWVKQRPGQGLEWIGNINPNSGSTNYNEKFKGKATLTVDTSSSTAYMDLSSLTSEDSAVYYCARLGDYWGQGTTLTVSS
chain 3: ENVLTQSPAIMSASPGEKVTMTCSASSSVSYMHWYQQKSSTSPKLWIYDTSKLASGVPGRFSGSGSGNSYSLTISSMEAEDVATYYCFQGSGYPLTFGSGTKLEIK
In the case of B1, in experiment [1], the “Fluorescence intensity (IL-18BP binding on IL-18 previously complexed to monoclonal antibody)” value was found to be 1390 fluorescence intensity. In addition, the “fold inhibition of binding to IL-18 complexed to IL-18BP against binding to IL-18 alone” value in experiment [2] was over 500 fold. Moreover, the Fluorescence intensity came to 25400 fluorescence intensity in experiment [3] and 36 fluorescence intensity in experiment [4].

B2: Antibody 111A6 (antibody, V domains shown)
VH: EVQLQQSGAELVKPGASVKLSCTASGFKIKDTYIHWVIQRPAQGLEWIGRIDPANGNTIYGSKFQGKATLTADTSSNTAYIHLSSLTSGDSAVYYCAGYVWFAYWGQGTLVTVSA
VL: DVVMTQVPLSLPVSLGDQASISCRSSQRLVHSNGNTYLHWFLQKPGQSPKLLIYTVSNRFSGVPDRFSGSGSGTDFTLKISRVEAEDLGVYFCSQSTLVPWTFGGGTKLEIK
For B2, the “Fluorescence intensity (IL-18BP binding on IL-18 previously complexed to monoclonal antibody)” value in experiment [1] was 1400 fluorescence intensity. Moreover, the Fluorescence intensity in experiment [3] stood at 25900 fluorescence intensity; in experiment [4], 42 fluorescence intensity.
